This note sets out measurements from patent publication US20120316071A1 (published 2012).

B1: Fab VH5-51_IGHD5-18*01>3_IGHJ4*01 G100K/G104T G24T/S28R/G35V (H:KT TRV) & V3-4_IGLJ1*01 G95A (Fab, V domains shown)
VH: EVQLVQSGAEVKKPGESLKISCKTSGYRFTSYWIVWVRQMPGKGLEWMGIIYPGDSDTRYSPSFQGQVTISADKSISTAYLQWSSLKASDTAMYYCARRKYSYTYDYFDYWGQGTLVTVSS
VL: QTVVTQEPSFSVSPGGTVTLTCGLSSGSVSTSYYPSWYQQTPGQAPRTLIYSTNTRSSGVPDRFSGSILGNKAALTITGAQADDESDYYCVLYMASGISYVFGTGTKVTVL
notes: Fab; expressed in E. coli with CH1 (Plasmid A, His6 and Flag tags) and lambda CL (Plasmid E); also called H:KT TRV & G95A
B2: Fab VH5-51_IGHD5-18*01>3_IGHJ4*01 G100K/G104T G24T/S28R/G35V (H:KT TRV) & V3-4_IGLJ1*01 S26A (Fab, V domains shown)
VH: B1 VH
VL: B1 VL with S26A, A95G
notes: Fab; expressed in E. coli with CH1 (Plasmid A, His6 and Flag tags) and lambda CL (Plasmid E); also called H:KT TRV & S26A
B3: Fab VH5-51_IGHD5-18*01>3_IGHJ4*01 G100K/G104T G24T/S28R/G35V (H:KT TRV) & V3-4_IGLJ1*01 T78L (Fab, V domains shown)
VH: B1 VH
VL: B1 VL with T78L, A95G
notes: Fab; expressed in E. coli with CH1 (Plasmid A, His6 and Flag tags) and lambda CL (Plasmid E); also called H:KT TRV & T78L
B4: Fab VH5-51_IGHD5-18*01>3_IGHJ4*01 G100K/G104T G24T/S28R/G35V (H:KT TRV) & V3-4_IGLJ1*01 M94A (Fab, V domains shown)
VH: B1 VH
VL: B1 VL with M94A, A95G
notes: Fab; expressed in E. coli with CH1 (Plasmid A, His6 and Flag tags) and lambda CL (Plasmid E); also called H:KT TRV & M94A
B5: Fab VH5-51_IGHD5-18*01>3_IGHJ4*01 G100K/G104T G24T/S28R/G35V (H:KT TRV) & V3-4_IGLJ1*01 Y33A (Fab, V domains shown)
VH: B1 VH
VL: B1 VL with Y33A, A95G
notes: Fab; expressed in E. coli with CH1 (Plasmid A, His6 and Flag tags) and lambda CL (Plasmid E); also called H:KT TRV & Y33A
B6: Fab VH5-51_IGHD5-18*01>3_IGHJ4*01 G100K/G104T G24T/S28R/G35V (H:KT TRV) & V3-4_IGLJ1*01 L92A (Fab, V domains shown)
VH: B1 VH
VL: B1 VL with L92A, A95G
notes: Fab; expressed in E. coli with CH1 (Plasmid A, His6 and Flag tags) and lambda CL (Plasmid E); also called H:KT TRV & L92A
B7: Fab VH5-51_IGHD5-18*01>3_IGHJ4*01 G100K/G104T G24T/S28R/G35V (H:KT TRV) & V3-4_IGLJ1*01 S36A (Fab, V domains shown)
VH: B1 VH
VL: B1 VL with S36A, A95G
notes: Fab; expressed in E. coli with CH1 (Plasmid A, His6 and Flag tags) and lambda CL (Plasmid E); also called H:KT TRV & S36A
B8: Fab VH5-51_IGHD5-18*01>3_IGHJ4*01 G100K/G104T G24T/S28R/G35V (H:KT TRV) & V3-4_IGLJ1*01 S96A (Fab, V domains shown)
VH: B1 VH
VL: B1 VL with A95G, S96A
notes: Fab; expressed in E. coli with CH1 (Plasmid A, His6 and Flag tags) and lambda CL (Plasmid E); also called H:KT TRV & S96A
B9: Fab VH5-51_IGHD5-18*01>3_IGHJ4*01 G100K/G104T G24T/S28R/G35V (H:KT TRV) & V3-4_IGLJ1*01 S28A (Fab, V domains shown)
VH: B1 VH
VL: B1 VL with S28A, A95G
notes: Fab; expressed in E. coli with CH1 (Plasmid A, His6 and Flag tags) and lambda CL (Plasmid E); also called H:KT TRV & S28A
B10: Fab VH5-51_IGHD5-18*01>3_IGHJ4*01 G100K/G104T G24T/S28R/G35V (H:KT TRV) & V3-4_IGLJ1*01 L24A (Fab, V domains shown)
VH: B1 VH
VL: B1 VL with L24A, A95G
notes: Fab; expressed in E. coli with CH1 (Plasmid A, His6 and Flag tags) and lambda CL (Plasmid E); also called H:KT TRV & L24A
B11: Fab VH5-51_IGHD5-18*01>3_IGHJ4*01 G100K/G104T G24T/S28R/G35V (H:KT TRV) & V3-4_IGLJ1*01 T78V (Fab, V domains shown)
VH: B1 VH
VL: B1 VL with T78V, A95G
notes: Fab; expressed in E. coli with CH1 (Plasmid A, His6 and Flag tags) and lambda CL (Plasmid E); also called H:KT TRV & T78V
B12: Fab VH5-51_IGHD5-18*01>3_IGHJ4*01 G100K/G104T G24T/S28R/G35V (H:KT TRV) & V3-4_IGLJ1*01 I98A (Fab, V domains shown)
VH: B1 VH
VL: B1 VL with A95G, I98A
notes: Fab; expressed in E. coli with CH1 (Plasmid A, His6 and Flag tags) and lambda CL (Plasmid E); also called H:KT TRV & I98A
B13: Fab VH5-51_IGHD5-18*01>3_IGHJ4*01 G100K/G104T G24T/S28R/G35V (H:KT TRV) & V3-4_IGLJ1*01 S52A (Fab, V domains shown)
VH: B1 VH
VL: B1 VL with S52A, A95G
notes: Fab; expressed in E. coli with CH1 (Plasmid A, His6 and Flag tags) and lambda CL (Plasmid E); also called H:KT TRV & S52A
B14: Fab VH5-51_IGHD5-18*01>3_IGHJ4*01 G100K/G104T G24T/S28R/G35V (H:KT TRV) & V3-4_IGLJ1*01 T78E (Fab, V domains shown)
VH: B1 VH
VL: B1 VL with T78E, A95G
notes: Fab; expressed in E. coli with CH1 (Plasmid A, His6 and Flag tags) and lambda CL (Plasmid E); also called H:KT TRV & T78E
B15: Fab VH5-51_IGHD5-18*01>3_IGHJ4*01 G100K/G104T G24T/S28R/G35V (H:KT TRV) & V3-4_IGLJ1*01 S30A (Fab, V domains shown)
VH: B1 VH
VL: B1 VL with S30A, A95G
notes: Fab; expressed in E. coli with CH1 (Plasmid A, His6 and Flag tags) and lambda CL (Plasmid E); also called H:KT TRV & S30A
B16: Fab VH5-51_IGHD5-18*01>3_IGHJ4*01 G100K/G104T G24T/S28R/G35V (H:KT TRV) & V3-4_IGLJ1*01 T31A (Fab, V domains shown)
VH: B1 VH
VL: B1 VL with T31A, A95G
notes: Fab; expressed in E. coli with CH1 (Plasmid A, His6 and Flag tags) and lambda CL (Plasmid E); also called H:KT TRV & T31A
B17: Fab VH5-51_IGHD5-18*01>3_IGHJ4*01 G100K/G104T G24T/S28R/G35V (H:KT TRV) & V3-4_IGLJ1*01 G97A (Fab, V domains shown)
VH: B1 VH
VL: B1 VL with A95G, G97A
notes: Fab; expressed in E. coli with CH1 (Plasmid A, His6 and Flag tags) and lambda CL (Plasmid E); also called H:KT TRV & G97A
B18: Fab VH5-51_IGHD5-18*01>3_IGHJ4*01 G100K/G104T G24T/S28R/G35V (H:KT TRV) & V3-4_IGLJ1*01 P35A (Fab, V domains shown)
VH: B1 VH
VL: B1 VL with P35A, A95G
notes: Fab; expressed in E. coli with CH1 (Plasmid A, His6 and Flag tags) and lambda CL (Plasmid E); also called H:KT TRV & P35A
B19: Fab VH5-51_IGHD5-18*01>3_IGHJ4*01 G100K/G104T G24T/S28R/G35V (H:KT TRV) & V3-4_IGLJ1*01 S25A (Fab, V domains shown)
VH: B1 VH
VL: B1 VL with S25A, A95G
notes: Fab; expressed in E. coli with CH1 (Plasmid A, His6 and Flag tags) and lambda CL (Plasmid E); also called H:KT TRV & S25A
B20: Fab VH5-51_IGHD5-18*01>3_IGHJ4*01 G100K/G104T G24T/S28R/G35V (H:KT TRV) & V3-4_IGLJ1*01 S99A (Fab, V domains shown)
VH: B1 VH
VL: B1 VL with A95G, S99A
notes: Fab; expressed in E. coli with CH1 (Plasmid A, His6 and Flag tags) and lambda CL (Plasmid E); also called H:KT TRV & S99A
B21: Fab VH5-51_IGHD5-18*01>3_IGHJ4*01 G100K/G104T G24T/S28R/G35V (H:KT TRV) & V3-4_IGLJ1*01 V91A (Fab, V domains shown)
VH: B1 VH
VL: B1 VL with V91A, A95G
notes: Fab; expressed in E. coli with CH1 (Plasmid A, His6 and Flag tags) and lambda CL (Plasmid E); also called H:KT TRV & V91A

Numbering of substitutions follows the chain as printed. Names and notes keep the numbering of the source.

In the test the target is T1, Recombinant Human DLL4 (human, UniProt Q9NR61 27-524).
T1 construct: also called delta-like protein 4; rHuman DLL4
As to the kind of experiment: ELISA, DLL4 coated on plate, Fab at 100 nM, absorbance at 450 nm minus blank.
Regarding B1, the “ELISA Signal-blank (100 nM Fab)” value turned out to be 0.216. On to B2, for which the “ELISA Signal-blank (100 nM Fab)” value was found to be 0.395. In the case of B3, the “ELISA Signal-blank (100 nM Fab)” value is 0.347. To B4 belongs 0.277; to B5, 0.301.

For the molecule B6, the “ELISA Signal-blank (100 nM Fab)” value stood at 0.186. Take B7: the “ELISA Signal-blank (100 nM Fab)” value stood at 0.38.

In the case of B8, the “ELISA Signal-blank (100 nM Fab)” value turned out to be 0.436. To B9 belongs 0.478; to B10, 0.244; to B11, 0.34. To B12 belongs 0.162; to B13, 0.574; to B14, 0.217. With B15 the figure was 0.344. With B16, the “ELISA Signal-blank (100 nM Fab)” value is 0.552. To B17 belongs 0.129; to B18, 0.236. As for B19, the “ELISA Signal-blank (100 nM Fab)” value was found to be 0.483. To B20 belongs 0.3. With B21 the figure was 0.606.
